{"source": "paper doi:10.1101/2023.04.30.538836", "molecular_target": "PlsB from Themomonas haemolytica (Themomonas haemolytica)", "assay": "cryo-EM structure"}
{"substance": "PlsB from Themomonas haemolytica (enzyme)", "values": [{"measurement": "stoichiometry N", "result": 2}]}
